In patent publication US20180155451A1 (published 2018):

T1: FcγRIIa H (human, UniProt P12318 34-217)
T1 construct: extracellular domain; Soluble His-tagged extracellular domain expressed in FreeStyle293 cells; also called FcγRIIa type H; FcgRIIa H; not shown: His tag attached to the C terminus
T1 sequence (looked up): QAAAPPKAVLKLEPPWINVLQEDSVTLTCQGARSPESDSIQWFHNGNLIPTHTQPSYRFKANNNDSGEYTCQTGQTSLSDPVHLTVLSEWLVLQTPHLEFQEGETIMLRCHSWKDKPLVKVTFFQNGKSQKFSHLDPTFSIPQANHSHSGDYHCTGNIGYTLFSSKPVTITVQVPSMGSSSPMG

T2: FcγRIIb (human, UniProt P31994 43-217)
T2 construct: extracellular domain; Soluble His-tagged extracellular domain expressed in FreeStyle293 cells; also called FcgRIIb; 2b; not shown: His tag attached to the C terminus
T2 sequence (looked up): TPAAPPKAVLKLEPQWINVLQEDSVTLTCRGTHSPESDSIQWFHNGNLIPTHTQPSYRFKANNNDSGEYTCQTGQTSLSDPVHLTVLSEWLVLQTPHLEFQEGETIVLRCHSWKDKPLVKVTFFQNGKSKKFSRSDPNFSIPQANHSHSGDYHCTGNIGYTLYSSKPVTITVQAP

T3: FcγRIIb extracellular domain with C-terminal His tag (human, UniProt P31994 43-217)
T3 construct: extracellular domain; Soluble receptor expressed in FreeStyle293 cells and used as analyte in Biacore; also called FcgRIIb; 2b; not shown: His tag at the C terminus
T3 sequence (looked up): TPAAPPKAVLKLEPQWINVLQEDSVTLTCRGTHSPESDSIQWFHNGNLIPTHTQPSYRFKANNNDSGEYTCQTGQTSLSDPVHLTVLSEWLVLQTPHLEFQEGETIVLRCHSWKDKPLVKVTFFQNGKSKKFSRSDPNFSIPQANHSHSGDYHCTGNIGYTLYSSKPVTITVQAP


How the values were obtained:
FcγRIIa H [1] = molecular target: T1, FcγRIIa H; experiment: SPR (Biacore); He/Con_2aH divided by He/Con_2b (FcγRIIb) of the same antibody
FcγRIIa H [2] = molecular target: T1, FcγRIIa H; experiment: SPR (Biacore), captured antibody, FcγR analyte; relative to GpH7-A5/GpH7-B3/GpL16-k0 = 100
Method: (§1) The heterodimerized antibodies He Abs in which one of the H chains was introduced with an alteration were assayed for their binding activities to each activating FcγR and inhibitory FcγR according to the method described in Example 4. […] The activating FcγRs in FIGS. 26, 27, 28, and 29 are FcγRIa, FcγRIIa (R), FcγRIIa (H), and FcγRIIIa, respectively.
(§2) Analysis of interaction between objective antibody and the FcγR was carried out using Biacore T100 (GE Healthcare). HBS-EP+ (GE Healthcare) was used as the running buffer, and the measurement temperature was set to 25° C. Chips produced by immobilizing the antigen peptide by the amine coupling method to a Series S Sencor Chip CM5 (GE Healthcare), or alternatively, chips produced by allowing preliminarily biotinylated antigen peptides to interact with and immobilize onto a Series S Sensor Chip SA (certified) (GE Healthcare) were used. Antibodies of interest were captured onto an antigen peptide-immobilized chip, and allowed to interact to each FcγR diluted with running buffer. To regenerate and repeatedly use the chip, the antibodies captured on the chip were washed off by reacting 10 mM glycine-HCl, pH 1.5.

FcγRIIb = molecular target: T2, FcγRIIb; experiment: as above
Method: as §1, §2

[3] = molecular target: T4, FcγRIa extracellular domain with C-terminal His tag (human, UniProt P12314 16-292); experiment: SPR Biacore; relative binding to FcγRIa divided by that to FcγRIIb
T4 construct: extracellular domain; Soluble receptor expressed in FreeStyle293 cells and used as analyte in Biacore; also called FcgRI; 1a; not shown: His tag at the C terminus

[4] = molecular target: T3, FcγRIIb extracellular domain with …; experiment: SPR Biacore, relative binding amount
[5] = molecular target: T4, FcγRIa extracellular domain with …; experiment: SPR Biacore, relative binding amount

T4 sequence (P12314 16-292): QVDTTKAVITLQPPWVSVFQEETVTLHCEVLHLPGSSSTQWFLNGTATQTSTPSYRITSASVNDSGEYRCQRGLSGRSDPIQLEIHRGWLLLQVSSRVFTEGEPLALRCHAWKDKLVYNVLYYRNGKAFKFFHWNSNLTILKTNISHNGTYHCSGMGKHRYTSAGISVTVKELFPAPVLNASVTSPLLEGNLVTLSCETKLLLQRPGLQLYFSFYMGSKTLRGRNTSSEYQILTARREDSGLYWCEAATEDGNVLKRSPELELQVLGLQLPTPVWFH

Row | Binder | He_2aH/2b (FcγRIIa H [1]) [ratio] | He/Con_2aH (FcγRIIa H [2]) | He/Con_2b (FcγRIIb) | Ia/IIb He_1a/2b [3] | He/Con_2b [4] | He/Con_1a [5]
1 | GpH7-A5/GpH7-B3 variant K326_19Q/GpL16-k0 (antibody, human IgG1, kappa, Heterodimerized anti-glypican-3 IgG1; mutation in the GpH7-B3 H chain only; also called He Ab) heavy 1: not shown heavy 2: not shown light: DIVMTQSPLSLPVTPGEPASISCQASESLVHSNRNTYLHWYLQKPGQSPQLLIYKVSNRFSGVPDRFSGSGSGTDFTLKISRVEAEDVGVYYCSQNTHVPPTFGQGTKVEIERTVAAPSVFIFPPSDEQLKSGTASVVCLLNNFYPREAKVQWKVDNALQSGNSQESVTEQDSKDSTYSLSSTLTLSKADYEKHKVYACEVTHQGLSSPVTKSFNRGEC | 0.73 | 101 relative (control = 100) | 139 relative (control = 100) | – | – | –
2 | GpH7-A5/GpH7-B3 variant N325_06M/GpL16-k0 (antibody, human IgG1, kappa, Heterodimerized anti-glypican-3 IgG1; mutation in the GpH7-B3 H chain only; also called He Ab) heavy 1: not shown heavy 2: not shown light: DIVMTQSPLSLPVTPGEPASISCQASESLVHSNRNTYLHWYLQKPGQSPQLLIYKVSNRFSGVPDRFSGSGSGTDFTLKISRVEAEDVGVYYCSQNTHVPPTFGQGTKVEIERTVAAPSVFIFPPSDEQLKSGTASVVCLLNNFYPREAKVQWKVDNALQSGNSQESVTEQDSKDSTYSLSSTLTLSKADYEKHKVYACEVTHQGLSSPVTKSFNRGEC | 0.22 | 48.2 relative (control = 100) | 217 relative (control = 100) | – | – | –
3 | heterodimerized antibody GpH7-A5/GpH7-B3 variant Q295_20W/GpL16-k0 (antibody, human IgG1, kappa, Substitution in only one H chain (GpH7-B3 side); also called He Ab) heavy 1: not shown heavy 2: not shown light: DIVMTQSPLSLPVTPGEPASISCQASESLVHSNRNTYLHWYLQKPGQSPQLLIYKVSNRFSGVPDRFSGSGSGTDFTLKISRVEAEDVGVYYCSQNTHVPPTFGQGTKVEIERTVAAPSVFIFPPSDEQLKSGTASVVCLLNNFYPREAKVQWKVDNALQSGNSQESVTEQDSKDSTYSLSSTLTLSKADYEKHKVYACEVTHQGLSSPVTKSFNRGEC | – | – | – | 2.11 ratio of He/Con_1a to He/Con_2b | 44.4 % of GpH7-A5/GpH7-B3/GpL16-k0 (=100) | 93.7 % of GpH7-A5/GpH7-B3/GpL16-k0 (=100)
4 | GpH7-A5/GpH7-B3 variant N325_03V/GpL16-k0 (antibody, human IgG1, kappa, Heterodimerized anti-glypican-3 IgG1; mutation in the GpH7-B3 H chain only; also called He Ab) heavy 1: not shown heavy 2: not shown light: DIVMTQSPLSLPVTPGEPASISCQASESLVHSNRNTYLHWYLQKPGQSPQLLIYKVSNRFSGVPDRFSGSGSGTDFTLKISRVEAEDVGVYYCSQNTHVPPTFGQGTKVEIERTVAAPSVFIFPPSDEQLKSGTASVVCLLNNFYPREAKVQWKVDNALQSGNSQESVTEQDSKDSTYSLSSTLTLSKADYEKHKVYACEVTHQGLSSPVTKSFNRGEC | 0.41 | 45.2 relative (control = 100) | 111 relative (control = 100) | – | – | –
5 | GpH7-A5/GpH7-B3 variant N325_08L/GpL16-k0 (antibody, human IgG1, kappa, Heterodimerized anti-glypican-3 IgG1; mutation in the GpH7-B3 H chain only; also called He Ab) heavy 1: not shown heavy 2: not shown light: DIVMTQSPLSLPVTPGEPASISCQASESLVHSNRNTYLHWYLQKPGQSPQLLIYKVSNRFSGVPDRFSGSGSGTDFTLKISRVEAEDVGVYYCSQNTHVPPTFGQGTKVEIERTVAAPSVFIFPPSDEQLKSGTASVVCLLNNFYPREAKVQWKVDNALQSGNSQESVTEQDSKDSTYSLSSTLTLSKADYEKHKVYACEVTHQGLSSPVTKSFNRGEC | 0.26 | 52 relative (control = 100) | 197 relative (control = 100) | – | – | –
6 | GpH7-A5/GpH7-B3 variant N325_07I/GpL16-k0 (antibody, human IgG1, kappa, Heterodimerized anti-glypican-3 IgG1; mutation in the GpH7-B3 H chain only; also called He Ab) heavy 1: not shown heavy 2: not shown light: DIVMTQSPLSLPVTPGEPASISCQASESLVHSNRNTYLHWYLQKPGQSPQLLIYKVSNRFSGVPDRFSGSGSGTDFTLKISRVEAEDVGVYYCSQNTHVPPTFGQGTKVEIERTVAAPSVFIFPPSDEQLKSGTASVVCLLNNFYPREAKVQWKVDNALQSGNSQESVTEQDSKDSTYSLSSTLTLSKADYEKHKVYACEVTHQGLSSPVTKSFNRGEC | 0.22 | 38.1 relative (control = 100) | 171 relative (control = 100) | – | – | –
7 | GpH7-A5/GpH7-B3 variant N325_05P/GpL16-k0 (antibody, human IgG1, kappa, Heterodimerized anti-glypican-3 IgG1; mutation in the GpH7-B3 H chain only; also called He Ab) heavy 1: not shown heavy 2: not shown light: DIVMTQSPLSLPVTPGEPASISCQASESLVHSNRNTYLHWYLQKPGQSPQLLIYKVSNRFSGVPDRFSGSGSGTDFTLKISRVEAEDVGVYYCSQNTHVPPTFGQGTKVEIERTVAAPSVFIFPPSDEQLKSGTASVVCLLNNFYPREAKVQWKVDNALQSGNSQESVTEQDSKDSTYSLSSTLTLSKADYEKHKVYACEVTHQGLSSPVTKSFNRGEC | 0.8 | 20.7 relative (control = 100) | 26 relative (control = 100) | – | – | –
8 | heterodimerized antibody GpH7-A5/GpH7-B3 variant Q295_16H/GpL16-k0 (antibody, human IgG1, kappa, Substitution in only one H chain (GpH7-B3 side); also called He Ab) heavy 1: not shown heavy 2: not shown light: DIVMTQSPLSLPVTPGEPASISCQASESLVHSNRNTYLHWYLQKPGQSPQLLIYKVSNRFSGVPDRFSGSGSGTDFTLKISRVEAEDVGVYYCSQNTHVPPTFGQGTKVEIERTVAAPSVFIFPPSDEQLKSGTASVVCLLNNFYPREAKVQWKVDNALQSGNSQESVTEQDSKDSTYSLSSTLTLSKADYEKHKVYACEVTHQGLSSPVTKSFNRGEC | – | – | – | 1.64 ratio of He/Con_1a to He/Con_2b | 62.7 % of GpH7-A5/GpH7-B3/GpL16-k0 (=100) | 102 % of GpH7-A5/GpH7-B3/GpL16-k0 (=100)
